Test results from patent US20160362460A1 (Pieris, published 2016).

Assays:
[1] = target: T1, Human CTLA-4-Fc (Chimerigen, CHI-HF-210A4-M001) (human, UniProt P16410 37-162); test: SPR (Biacore T200), human CTLA-4-Fc captured by anti-human IgG-Fc, mutein as analyte, 1:1 fit
T1 construct: Bought protein; also called hCTLA-4; not shown: Fc part of the bought fusion

[2] = target: T2, human CTLA-4 on transfected CHO-K1 cells (human, UniProt P16410 36-223); test: FACS competition: inhibition of 20 nM biotinylated CD80/B7.1 binding to CTLA-4-transfected CHO-K1 cells
T2 construct: whole, on cells; also called CHO: CTLA-4; human CTLA-4 expressing CHO cells
T2 sequence (P16410 36-223): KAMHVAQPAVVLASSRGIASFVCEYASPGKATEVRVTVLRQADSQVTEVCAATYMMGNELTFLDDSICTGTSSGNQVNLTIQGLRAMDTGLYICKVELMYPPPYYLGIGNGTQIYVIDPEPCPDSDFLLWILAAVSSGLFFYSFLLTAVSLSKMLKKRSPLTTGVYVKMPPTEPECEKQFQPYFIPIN

[3] = target: T2, human CTLA-4 on transfected CHO-K1 cells; test: FACS competition on human CTLA-4-transfected CHO cells; blocked ligand 20 nM biotinylated human B7.1 Fc, detected with streptavidin-PE
[4] = target: T2, human CTLA-4 on transfected CHO-K1 cells; test: FACS competition: inhibition of 20 nM B7.1 Fc-bio binding to human CTLA-4-transfected CHO cells
[5] = target: T2, human CTLA-4 on transfected CHO-K1 cells; test: FACS competition on human CTLA-4-transfected CHO cells; blocked ligand 20 nM biotinylated human B7.1, streptavidin-phycoerythrin

T1 sequence (P16410 37-162 limits assumed, change not shown): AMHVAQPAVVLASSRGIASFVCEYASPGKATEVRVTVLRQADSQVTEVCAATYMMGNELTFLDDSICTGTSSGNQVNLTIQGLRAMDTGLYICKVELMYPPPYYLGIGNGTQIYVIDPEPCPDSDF

Binder | Kd [1] [nM] | koff [1] [s⁻¹] | kon [1] [M⁻¹ s⁻¹] | EC50 [2] [nM] | IC50 (read off the curve) [3] [nM] | IC50 [4] [nM] | IC50 (read off the curve) [5] [nM]
lipocalin mutein SEQ ID NO: 62 (designed binder) QDSTSDLIPAPPLSKVPLQQNFQDNQFQGKWYVVGLAGNRILRDDQHPMPMYATIYELKGDKSYNVTSVISSHKKCLYPIATFVPGSQPGEFTLGNIKSYGDKWSYLVRVVSTDYNQYAVVFFKHADSNYESFSITIYGRTKELASELKENFIRFSKSLGLPENHIVFPVPIDQCIDG | 0.36 | 0.00027 | 750000 | 6 |  |  | 
lipocalin mutein SEQ ID NO: 94 (designed binder) QDSTSDLIPAPPLSKVPLQQNFQDNQFQGKWYVVGLAGNRILRQDQHPMPMYATIYELKEDKSYQVTSVISSHKKCLYPIATFVPGSQPGEFTLGNIKSYGDKVSYLVRVVSTNYNQHAMVFFKYADRNFESFSITLYGRTKELTSELKENFIRFSKSLGLPENHIVFPVPIDQCIDG | 1.8 | 0.00061 | 340000 | 13.4 |  |  | 10 to 20
lipocalin mutein SEQ ID NO: 65 (designed binder) QDSTSDLIPAPPLSKVPLQQNFQDNQFQGKWYVVGLAGNRILRDDQHPMPMYATIYELKEDKSYQVTSVISSHKKCLYPIATFVPGSQPGEFTLGNIKSYGDKWSYLVRVVSTNYNQHAMVFFKHADSNYESFSITLYGRTKELTSELKENFIRFSKSLGLPENHIVFPVPIDQCIDGSAWSHPQFEK | 0.62 | 0.00044 | 710000 | 7.8 |  |  | 
lipocalin mutein SEQ ID NO: 66 (designed binder) QDSTSDLIPAPPLSKVPLQQNFQDNQFQGKWYVVGLAGNRILRLDQHPMPMYATIYELKEDKSYQVTSVISSHKKCLYPIATFVPGSQPGEFTLGNIRSYGDKTSYLVRVVSTNYNQHAMVFFKHADTNYESFSITLYGRTKELTSELKENFIRFSKSLGLPENHIVFPVPIDQCIDGSAWSHPQFEK | 1.8 | 0.0013 | 750000 | 7.4 |  |  | 

The next lines start with the values.

Kd [1] [nM] | koff [1] [s⁻¹] | kon [1] [M⁻¹ s⁻¹] | EC50 [2] [nM] | IC50 (read off the curve) [3] [nM] | IC50 [4] [nM] | IC50 (read off the curve) [5] [nM] | Binder
0.94 | 0.00072 | 770000 | 9.3 |  |  |  | lipocalin mutein SEQ ID NO: 61 (designed binder) QDSTSDLIPAPPLSKVPLQQNFQDNQFQGKWYVVGLAGNRILRLDQHPMPMYATIYELKGDKSYNVTSVISSHKKCLYPIATFVPGSQPGEFTLGNIRSYGDKTSYLVRVVSTDYNQYAVVFFKHADTNYESFSITIYGRTKELASELKENFIRFSKSLGLPENHIVFPVPIDQCIDG
0.35 | 0.00022 | 640000 | 7.6 | ~20 | 23 |  | CTLA-4 specific lipocalin mutein (SEQ ID NO: 4) (designed binder, hNGAL (lipocalin 2) mutein) QDSTSDLIPAPPLSKVPLQQNFQDNQFHGKWYVVGLAGNRILRDDQHPMPMYATIYELKGDKSYNVTSVISSHKKCLYPIATFVPGSQPGEFTLGNIKSYGDKWSYLVRVVSTDYNQYAVVFFKHADSNYESFSITIYGRTKELASELKENFIRFSKSLGLPENHIVFPVPIDQCIDG
